Experimental data as given in PMC9784262.

How the values were obtained:
[1] = tested on: Nterm (position 1, -----WR----); test: potentiometry; conditions: 25 °C; not stated (no added salt mentioned); none stated (unbuffered aqueous surfactant solution, N2 atmosphere, magnetic stirring); aggregated (micellar): post-micellar surfactant concentration, exact concentration not stated
[2] = tested on: Nterm (position 1, -----FR----); test: potentiometry; conditions: 25 °C; not stated (no added salt mentioned); none stated (unbuffered aqueous surfactant solution, N2 atmosphere, magnetic stirring); aggregated (micellar): post-micellar surfactant concentration, exact concentration not stated

| Substance | pKa [1] | pKa [2] |
| --- | --- | --- |
| TANHC12 (tryptophan-arginine dodecyl amide dihydrochloride) (synthetic) | 7.8 | – |
| TANHC14 (tryptophan-arginine tetradecylamide dihydrochloride) (synthetic) | 7.0 | – |
| PANHC8 (phenylalanine-arginine octyl amide dihydrochloride) (synthetic) | – | 6.9 |
| PANHC10 (phenylalanine-arginine decyl amide dihydrochloride) (synthetic) | – | 6.9 |
| TANHC10 (tryptophan-arginine decyl amide dihydrochloride) (synthetic) | 7.2 | – |
| PANHC14 (phenylalanine-arginine tetradecylamide dihydrochloride) (synthetic) | – | 5.9 |
| PANHC12 (phenylalanine-arginine dodecyl amide dihydrochloride) (synthetic) | – | 6.1 |
